Reference: patent publication US20210340232A1, “MONOCLONAL ANTIBODIES AGAINST HUMAN DICKKOPF3 AND USES THEREOF” (Board of Regents, The University of Texas System, priority 2018, published 2021)

Key:
Panc1 cells = experiment: Panc1 cell migration and invasion after rhDKK3; type: cell-based, human; settings: Panc1, 10 μg/mL, 24 hours
Description: FIGS. 2A-J. DKK3 stimulates HPSC and PDAC activity and increases chemoresistance. (FIG. 2A) HPSC proliferation was measured by MTT after treatment with PBS or rhDKK3 (10 μg/ml). DKK3 was silenced in HPSCs by shDKK3 (FIG. 2B) and cell proliferation was measured by MTT assay (FIG. 2B) and migration was determined at 24 hours (FIG. 2C). Control cells were transfected with scrambled shRNA. (FIG. 2D) Panc1 cells were treated with rhDKK3 (10 μg/ml) or serum-free media control, and cell migration and invasion were measured after 24 hours. (FIGS. 2E-F) Panc1 cells were stably silenced for DKK3 and cell proliferation (FIG. 2E) and colony formation in soft agar (FIG. 2F) were measured. (FIG. 2G) BxPC3 cell migration was measured after treatment with CM from HPSCs or HPSCs silenced for DKK3. Soft agar colony formation (FIG. 2H) in gemcitabine and apoptosis (FIG. 2I) was determined in chemosensitive L3.6p1 cells expressing DKK3 compared with transfection controls. (FIG. 2J) Gemcitabine-induced apoptosis was measured in chemoresistant HS766T cells silenced for DKK3. *p<0.01, **p<0.001, ***p<0.0001, ****p<0.00001.
(§1) Cell-based assays. Cell proliferation was measured by the MTS assay (Promega, Madison, Wis.). […]

NF-κB = NF-κB luciferase reporter assay in Panc28; type: cell-based, human; settings: parental Panc28 cells
Description: FIGS. 3A-F. NF-κB is activated in PSCs and PDAC cells by DKK3 and is necessary for DKK3-mediated stimulation of cell activity. (FIG. 3A) Phosphorylation of p65 and IκBα induced by DKK3 treatment (10 μg/ml) was determined by Western blotting. Relative protein loading was shown by using anti-β-actin antibody. (FIG. 3B) Time course of p65 activation by WB in HPSC and Panc1 cells. Cells were treated with recombinant DKK3 (10 μg/ml) for 0-24 h and change in band density relative to baseline were quantified. (FIG. 3C) DKK3 stimulates NFκB luciferase reporter in HPSC & PDAC cells, with mutant luc reporter (MT). NFκB activity induced by DKK3 was measured in Panc28 with phosphorylation-defective IκBαM by luciferase reporter (FIG. 3D) and Western blotting (FIG. 3E). For FIGS. 3C&D, in each set of three columns, the left is “PBS,” the middle is “DKK3,” and the right is “TNFα.” (FIG. 3F) Proliferation of Panc28 and Panc28/IκBαM was measured by MTT assay. *p<0.05, **p<0.01, ***p<0.001 and ****p<0.0001 vs. PBS control.
NF-κB activity. NF-κB activity was determined by using a luciferase reporter assay. […] Luciferase signal was detected by using D-luciferin firefly potassium salt (Caliper Life Sciences, Hopkinton, Mass.) and the IVIS® imaging system (Xenogen Corp., Alameda, Calif.). […]

CD3+ T cells = experiment: T cell division assay (CFSE); type: cell-based, human; settings: stimulated CD3+ T cells, DKK3 5-10 μg/mL
Description: FIGS. 6A-F. DKK3 blockade is associated with increased tumor immune infiltrates and improves response to checkpoint inhibitor therapy. (FIG. 6A) T cells were stimulated, treated with DKK3 (5-10 μg/mL) and proliferation was measured by CFSE assay. In a syngeneic orthotopic model with luciferase-labeled KPC cells, tumors were examined for CD3 and CD8 expression by IHC (FIG. 6B) and additional markers of T cell activity were measured by quantitative PCR (FIG. 6C). Mice in this model were treated with either control IgG, DKK3 mAb JM6-6-1, αCTLA4 or the combination JM6-6-1+αCTLA4 and tumor growth was measured by IVIS imaging to 25 and 190 days (FIG. 6D). Survival in this orthotopic implantation model is shown in (FIG. 6E). Using a GEMM (FIG. 6F), KPC/DKK3^+/+ (black line) or KPC/DKK3^−/− (blue line) mice were treated with αCTLA4 or control IgG and the Kaplan Meier survival curve is shown. *p<0.05, **p<0.01, ***p<0.001.
T cell division assay. Peripheral blood mononuclear cells (PBMC) were obtained from buffy coat by density centrifugation using Histopaque 1077 (Sigma) and CD3^+ T-cells were isolated using a pan T-cell isolation kit (Miltenyi Biotec). […] DKK3 or HPSC-CM was added and after 96 hours, cells were stained for CD3, CD4, and CD8 to define lineage and analyzed by flow cytometry. […]

BxPC3 cells [1] = experiment: BxPC3 Transwell migration in response to rhDKK3; type: cell-based, human; settings: BxPC3, rhDKK3 10 μg/ml, 48 hours
Description: (§2) HPSCs and BxPC3 cells were treated with DKK3 mAb clones JM6-6-1 and JM8-12-1 or isotype control mAb or PBS. (FIGS. 5A-B) HPSC apoptosis and migration as measured by FACS and Transwell migration assay at 48 hours. (FIG. 5C) BxPC3 migration in response to rhDKK3 10 μg/ml as measured by Transwell migration assay at 48 hours. (FIG. 5D) BxPC3 resistance to gemcitabine 100 μM as measured by MTS proliferation assay at 6 days. HPSC-CM, pancreatic stellate cell conditioned media, 10 μg/ml. The orthotopic co-injection BxPC3+ HPSC model of PDAC was used to test the efficacy of DKK3 mAb clones JM6-6-1 or JM8-12-1 (5 mg/kg i.p. once every 5 days). (FIG. 5E) Overall tumor progression was measured every 3-4 days by IVIS imaging. (FIG. 5F) Metastatic tumors in the peritoneal cavity after removal of the primary pancreatic tumor are shown by IVIS imaging. (FIG. 5G) Kaplan Meier survival curve showing mice treated with DKK3 mAb clone JM8-12 (right-most line), control mAb (middle line), or PBS (left-most line). (FIG. 5H) KPC mice (P48-Cre; Kras LSL-G12D;Trp53fl/fl) with either wild type DKK3 (solid lines) or deficient in DKK3 (“DKK3-KO,” dashed lines) were treated with DKK3 mAb JM6-6-1 (5 mg/kg i.p. once every 5 days), PBS or control mAb. […]
as §1

BxPC3 cells [2] = experiment: BxPC3 resistance to gemcitabine, MTS proliferation assay; type: cell-based, human; settings: BxPC3, gemcitabine 100 μM, HPSC-CM 10 μg/ml, 6 days
Description: as §2, §1

[3] = system: BxPC3 + HPSC orthotopic tumors; experiment: Orthotopic co-injection BxPC3 + HPSC nude mouse model of PDAC; type: in vivo; settings: 5 mg/kg i.p. once every 5 days
Description: HPSCs and BxPC3 cells were treated with DKK3 mAb clones JM6-6-1 and JM8-12-1 or isotype control mAb or PBS. (FIGS. 5A-B) HPSC apoptosis and migration as measured by FACS and Transwell migration assay at 48 hours. (FIG. 5C) BxPC3 migration in response to rhDKK3 10 μg/ml as measured by Transwell migration assay at 48 hours. (FIG. 5D) BxPC3 resistance to gemcitabine 100 μM as measured by MTS proliferation assay at 6 days. HPSC-CM, pancreatic stellate cell conditioned media, 10 μg/ml. The orthotopic co-injection BxPC3+ HPSC model of PDAC was used to test the efficacy of DKK3 mAb clones JM6-6-1 or JM8-12-1 (5 mg/kg i.p. once every 5 days). (FIG. 5E) Overall tumor progression was measured every 3-4 days by IVIS imaging. (FIG. 5F) Metastatic tumors in the peritoneal cavity after removal of the primary pancreatic tumor are shown by IVIS imaging. (FIG. 5G) Kaplan Meier survival curve showing mice treated with DKK3 mAb clone JM8-12 (right-most line), control mAb (middle line), or PBS (left-most line). (FIG. 5H) KPC mice (P48-Cre; Kras LSL-G12D;Trp53fl/fl) with either wild type DKK3 (solid lines) or deficient in DKK3 (“DKK3-KO,” dashed lines) were treated with DKK3 mAb JM6-6-1 (5 mg/kg i.p. once every 5 days), PBS or control mAb. Kaplan Meier survival curve is shown with hazard ratios (Log-rank test). *p<0.05, **p<0.01, ***p<0.001, ****p<0.0001 vs. control Ab.
An orthotopic nude mouse model of PDAC using BxPC3 cancer cells labeled with firefly luciferase (BxPC3-FL) co-injected with HPSCs has been previously described (Hwang et al., 2008). Mice received intrapancreatic injections of BxPC3-FL (1×10^6 per mouse) with HPSC-shControl or HPSC-shDKK3 in a tumor-to-stroma ratio of 1:0 or 1:3 in 50-μL of HBSS and tumor growth was monitored using IVIS imaging (Hwang et al., 2008). In addition, a syngeneic immunocompetent DKK3 null model was used, provided by Dr. C. Niehrs (Barrantes Idel et al., 2006), that was injected with murine PDAC cells (termed “KPC cells”) isolated from tumors arising in a GEMM of PDAC (Pdx1-Cre; Kras^LSL-G12D;Trp53^R172H/+) (Hingorani et al., 2005; Hingorani et al., 2003) and labeled with luciferase.
The efficacy of DKK3 mAb was tested in vivo using the previously described orthotopic co-implantation nude mouse model of PDAC with human PSCs mixed with luciferase-labeled BxPC3 cancer cells (1:3 tumor:PSC ratio). Mice were treated with either phosphate-buffered saline (PBS), isotype control mAb, or DKK3 mAb (clone JM6-6-1; 5 mg/kg i.p. once every 5 days) and tumor growth was followed with IVIS imaging. […] Tumors in the PBS and control mAb groups grew rapidly from day 22 onward, with an 8-fold increase in the luciferase signal.

recombinant human DKK3 = biological target: T1, recombinant human DKK3 (human, UniProt Q9UBP4 22-350); experiment: non-denaturing Western blot of recombinant protein
T1 construct: Bought recombinant protein (R&D); also called rhDKK3; recombinant human DKK-3/His
T1 sequence (Q9UBP4 22-350 limits assumed): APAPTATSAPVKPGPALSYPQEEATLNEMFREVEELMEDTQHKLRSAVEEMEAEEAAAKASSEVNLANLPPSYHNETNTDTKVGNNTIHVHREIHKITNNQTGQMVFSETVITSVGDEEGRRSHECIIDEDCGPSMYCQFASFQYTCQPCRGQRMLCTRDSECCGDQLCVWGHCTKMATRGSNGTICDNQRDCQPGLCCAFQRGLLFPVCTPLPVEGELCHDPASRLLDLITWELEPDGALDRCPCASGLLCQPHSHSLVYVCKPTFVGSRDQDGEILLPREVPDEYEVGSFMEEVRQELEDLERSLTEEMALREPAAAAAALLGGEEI

recombinant mouse DKK3 = biological target: T2, recombinant mouse DKK3 (mouse, UniProt Q9QUN9 23-349, limits assumed); experiment: non-denaturing Western blot of recombinant protein
T2 construct: also called murine DKK3
T2 sequence (Q9QUN9 23-349 limits assumed): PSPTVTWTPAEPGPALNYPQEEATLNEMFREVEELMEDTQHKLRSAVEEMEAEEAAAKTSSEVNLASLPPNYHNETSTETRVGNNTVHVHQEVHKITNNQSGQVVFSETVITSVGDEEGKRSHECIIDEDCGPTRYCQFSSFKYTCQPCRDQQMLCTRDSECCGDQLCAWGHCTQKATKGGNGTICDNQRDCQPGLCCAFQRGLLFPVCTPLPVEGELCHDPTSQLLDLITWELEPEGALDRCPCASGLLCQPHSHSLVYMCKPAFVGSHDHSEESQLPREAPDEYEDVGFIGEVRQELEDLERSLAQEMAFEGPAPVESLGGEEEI

## rhDKK3: recombinant human DKK3 (R&D)
Panc1 cells
  increase in invasion vs PBS controls: > 3 fold
  increase in migration vs PBS controls: ~100%
NF-κB
  induction of NF-κB promoter activity relative to PBS control: 33%
CD3+ T cells
  inhibition of cell proliferation compared to media alone: 4.7-11.5 fold

B1: JM8-12-1: monoclonal antibody against human DKK3; heavy chain variable SEQ ID NO: 17, light chain variable SEQ ID NO: 18 (tabled as JM8-12-2) (antibody, V domains shown)
VH: MKPSQSLSLTCTVTGYSITSDYAWNWIRQFPGNKLEWMGYISYRGSTRYNPSLKSRISITRDTSKNQLYLQLHSVTTEDTATYYCVHDGYYWVQQTLVTVSAAKTTPPSDY
VL: QDPRVDIVLTQSPASLAVSLFQRATISYRASKSVSTSGYSYMHWNQQKPGQPPRLLIYLVSNLESGVPARFSGSGSGTDFTLNIHPVEEEDAATYYCQHIRELTRSEGGPSWK
BxPC3 cells [1]
  effect on DKK3-mediated induction of migration: reverse the DKK3-mediated induction of migration
BxPC3 cells [2]
  effect on DKK3-mediated chemoresistance to gemcitabine: abrogated the DKK3-mediated induction of chemoresistance to gemcitabine
[3]
  hazard ratio compared with PBS control group: 0.26
  median survival: 50 days

B2: DKK3 mAb clone JM6-6-1 (antibody, V domains shown)
VH: EVKLVESGGGLVKPGGSLKLSCAASGFTFTIEYMAWIRQTPEKRLEWVASISSGGDDIYYADNVKGRFTISRDNAKNTLYLQMSSLKSEDTAIYYCSRSLSDWGQGTTLTVSS
VL: MTQTPLSLPVSLGDQASISCRSSQSILHSNGHTYLEWYLQKPGQSPKLLIYKVSNRFSGVPDRFSGSGSGTDFTLKISRVEAEDLGVYYCFQGSHVPFTFGSGTKLEIER
notes: Mouse hybridoma mAb from A/J mice immunized with recombinant human DKK-3/His; the negative control is an IgG1 isotype control; also called anti-DKK3 mAb JM6-6-1; DKK3 antibody JM6-6-1
Recombinant human DKK3
  binding result: binds
Recombinant mouse DKK3
  binding result: binds
